This note sets out measurements from publication PMC10482915, “Hornerin mediates phosphorylation of the polo-box domain in Plk1 by Chk1 to induce death in mitosis” (Cell Death and Differentiation, 2023).

For this assay, the target named is T1, His-Plk1 WT (human, UniProt P53350 1-603).
T1 construct: polo-like kinase 1 (Plk1), human; PCR product of the human Plk1 gene cloned into pET-28a; also called recombinant His-Plk1; His6-tagged Plk1 WT; source: E. coli BL21 DE3, purified (Ni2+-NTA-agarose)
T1 sequence (P53350 whole entry): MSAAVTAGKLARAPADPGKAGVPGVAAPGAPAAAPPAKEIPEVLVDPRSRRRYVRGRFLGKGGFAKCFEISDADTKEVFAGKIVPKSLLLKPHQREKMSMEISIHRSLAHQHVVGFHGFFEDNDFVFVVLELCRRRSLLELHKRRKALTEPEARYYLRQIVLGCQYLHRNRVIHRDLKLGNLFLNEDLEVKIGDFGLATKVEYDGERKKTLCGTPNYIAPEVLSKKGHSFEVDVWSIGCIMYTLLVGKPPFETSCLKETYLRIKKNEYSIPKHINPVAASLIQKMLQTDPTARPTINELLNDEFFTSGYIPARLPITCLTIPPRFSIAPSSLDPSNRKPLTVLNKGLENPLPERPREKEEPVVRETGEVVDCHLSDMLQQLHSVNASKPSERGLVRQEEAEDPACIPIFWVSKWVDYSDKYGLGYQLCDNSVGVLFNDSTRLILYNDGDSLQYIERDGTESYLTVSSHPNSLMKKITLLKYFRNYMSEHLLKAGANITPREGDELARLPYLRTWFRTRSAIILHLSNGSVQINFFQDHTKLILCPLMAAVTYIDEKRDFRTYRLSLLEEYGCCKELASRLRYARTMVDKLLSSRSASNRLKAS
The experiment in a line: pull-down; recombinant Chk1 incubated with recombinant His-Plk1, pulled down with Ni-beads; immunoblotting. Conditions: both partners purified. Background: A western blot detects proteins with antibodies after separation by electrophoresis.

B1: recombinant Chk1 (enzyme, human, UniProt O14757 1-476, looked up)
chain: MAVPFVEDWDLVQTLGEGAYGEVQLAVNRVTEEAVAVKIVDMKRAVDCPENIKKEICINKMLNHENVVKFYGHRREGNIQYLFLEYCSGGELFDRIEPDIGMPEPDAQRFFHQLMAGVVYLHGIGITHRDIKPENLLLDERDNLKISDFGLATVFRYNNRERLLNKMCGTLPYVAPELLKRREFHAEPVDVWSCGIVLTAMLAGELPWDQPSDSCQEYSDWKEKKTYLNPWKKIDSAPLALLHKILVENPSARITIPDIKKDRWYNKPLKKGAKRPRVTSGGVSESPSGFSKHIQSNLDFSPVNSASSEENVKYSSSQPEPRTGLSLWDTSPSYIDKLVQGISFSQPTCPDHMLLNSQLLGTPGSSQNPWQRLVKRMTRFFTKLDADKSYQCLKETCEKLGYQWKKSCMNQVTISTTDRRNNKLIFKVNLLEMDDKILVDFRLSKGDGLEFKRHFLKIKGKLIDIVSSQKIWLPAT
notes: checkpoint kinase 1 (Chk1), human recombinant kinase; the SignalChem kinase is named only for the kinase assay; also called human recombinant Chk1 kinase; checkpoint kinase 1; source: bought: SignalChem (named for the kinase assay)
In the case of B1, the binding result is on record as “binds”.
